Laboratory results: patent US20200179236A1, “METHOD AND PRODUCT FOR CARIES TREATMENT” (Credentis AG, priority 2016, published 2020)
Where no end group is shown, it is not given here.

How the values were obtained:
[1] = pH at which the peptide starts to undergo self-assembly; assay type: physicochemical
Description: Particular self-assembling peptides for use according to the invention are selected such that they are in self-assembled form when the pH of their environment is below a certain pH, e.g. below pH 7.5, e.g., at physiological ionic strength. The pH at which preferred self-assembling peptides of the invention undergo self-assembly is below 7.5, preferably below 7.2, more preferably below 7.0. For example, the pH at which the self-assembling peptide P11-4 (SEQ ID NO:1) and terminally modified P11-4 (SEQ ID NO:2) start to undergo self-assembly is about 7.5. This means that the self-assembling peptides start to self-assemble to a significant extent when the pH drops below 7.5.
As used herein, the pH at which the self-assembling peptide starts to undergo self-assembly refers to the pH below which a significant extent of self-assembly of the peptides in solution is observed, which means that at least about 25%, about 30%, about 35%, about 40%, about 45%, about 50%, about 55%, about 60%, about 65%, about 70%, about 75%, about 80%, about 85%, about 90%, about 95%, about 99% or even about 100% of the peptides found in the dental care product are assembled. In a preferred embodiment, at least about 25% of the peptides found in the dental care product are assembled below the pH at which the peptide starts to undergo self-assembly. […]

[2] = Self-assembling kinetic of P11-4 by measurements of elastic modulus G′; assay type: physicochemical; settings: 15 mg/ml, neutral pH, 37° C., 0.1% strain, 1 rad/second; independent of ionic strength
Procedure: P11-4 was prepared at 15 mg/ml with different buffer compositions (see below) measured at 0.1% strain, 37° C. and a frequency of 1 rad/second. Self-assembly of peptide monomers to polymers takes more than 5 min independent of the used ionic strength at neutral pH.
Squares (top line of symbols) —NaCl: Tris (0.055 M)+NaCl, final ionic strength 142 mM;
Artifical saliva (second line of symbols from top): Tris, Ca(NO3)2, KH2PO4 (ratio 0.77:0.14: 0.08), ionic strength 142 mM;
Dulbecco's Modified Eagle Medium (DMEM): NaCl, NaHCO3,KCl,CaCl2, MgSO4 (ratio 0.66:0.4:0.05: 0.02:0.007), ionic strength 165 mM; MgSO4: 0.055 M Tris+0.192 M MgSO4 0.14 M Ionic strength

Row | Substance | pH at which the peptide starts to undergo self-assembly [1] | time of self-assembly of peptide monomers to polymers [2]
1 | CH3CO-QQRFEWEFEQQ-NH2 (Ac-QQRFEWEFEQQ-NH2) [terminally modified P11-4] | about 7.5 | –
2 | QQRFEWEFEQQ | about 7.5 | more than 5 min
